This note sets out measurements from patent US20050036988A1 (published 2005).

This data set deals with the molecule itself. Kind of data set: western immunoblotting of rat liver after chronic CCl4 injury.

B1: rat stellate cell activation-associated protein (STAP) (enzyme, UniProt Q921A4 1-190, looked up)
chain: MEKVPGDMEIERRERNEELSEAERKAVQATWARLYANCEDVGVAILVRFFVNFPSAKQYFSQFKHMEDPLEMERSPQLRKHACRVMGALNTVVENLHDPDKVSSVLALVGKAHALKHKVEPMYFKILSGVILDVIAEEFANDFPVETQKAWTKLRGLIYSHVTAAYKEVGWVQQVPNTTTLPATLPSSGP
notes: Detected in rat liver tissue lysates and sections, either endogenous or expressed from rAAV/rSTAP; Immunoblots show monomeric and dimeric forms; also called rSTAP; rat STAP
Take B1: the binding result is reported as “binds”.
